Biological target: T1, Myostatin (UniProt O14793 267-375, limits assumed)
T1 sequence (looked up): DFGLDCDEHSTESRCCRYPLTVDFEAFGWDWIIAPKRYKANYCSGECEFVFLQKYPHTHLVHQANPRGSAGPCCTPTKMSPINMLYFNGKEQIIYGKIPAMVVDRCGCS
Assay: cell-based or functional assay

Row | Binder | IC50 of inhibition of myostatin dependent SMAD2/3 activation (luciferase reporter, HEK293, 0.1 nM myostatin) | fold difference of IC50 against hNOPE (1-620) ECD-FC | fold difference of IC50 against hNOPE (1-957) ECD-FC
1 | hNOPE (1-957) ECD-FC (Fc fusion, not shown: a dimerising Fc or GST) ELLLPQETTVELSCGVGPLQVILGPEQAAVLNCSLGAAAAGPPTRVTWSKDGDTLLEHDHLHLLPNGSLWLSQPLAPNGSDESVPEAVGVIEGNYSCLAHGPLGVLASQTAVVKLATLADFSLHPESQTVEENGTARFECHIEGLPAPIITWEKDQVTLPEEPRLIVLPNGVLQILDVQESDAGPYRCVATNSARQHFSQEALLSVAHRGSLASTRGQDVVIVAAPENTTVVSGQSVVMECVASADPTPFVSWVRQDGKPISTDVIVLGRTNLLIANAQPWHSGVYVCRANKPRTRDFATAAAELRVLAAPAITQAPEALSRTRASTARFVCRASGEPRPALRWLHNGAPLRPNGRVKVQGGGGSLVITQIGLQDAGYYQCVAENSAGMACAAASLAVVVREGLPSAPTRVTATPLSSSAVLVAWERPEMHSEQIIGFSLHYQKARGMDNVEYQFAVNNDTTELQVRDLEPNTDYEFYVVAYSQLGASRTSTPALVHTLDDVPSAAPQLSLSSPNPSDIRVAWLPLPPSLSNGQVVKYKIEYGLGKEDQIFSTEVRGNETQLMLNSLQPNKVYRVRISAGTAAGFGAPSQWMHHRTPSMHNQSHVPFAPAELKVQAKMESLVVSWQPPPHPTQISGYKLYWREVGAEEEANGDRLPGGRGDQAWDVGPVRLKKKVKQYELTQLVPGRLYEVKLVAFNKHEDGYAAVWKGKTEKAPAPDMPIQRGPPLPPAHVHAESNSSTSIWLRWKKPDFTTVKIVNYTVRFSPWGLRNASLVTYYTSSGEDILIGGLKPFTKYEFAVQSHGVDMDGPFGSVVERSTLPDRPSTPPSDLRLSPLTPSTVRLHWCPPTEPNGEIVEYLILYSSNHTQPEHQWTLLTTQGNIFSAEVHGLESDTRYFFKMGARTEVGPGPFSRLQDVITLQEKLSDSLDMHSVT | 0.5 nM | – | –
2 | mNOPE (1-955) ECD-FC (Fc fusion, not shown: a dimerising Fc or GST) ELPLPQETTVKLSCDEGPLQVILGPEQAVVLDCTLGATAAGPPTRVTWSKDGDTVLEHENLHLLPNGSLWLSSPLEQEDSDDEEALRIWKVTEGSYSCLAHSPLGVVASQVAVVKLATLEDFSLHPESQIVEENGTARFECHTKGLPAPIITWEKDQVTVPEESRLITLPNGVLQILDVQDSDAGSYRCVATNSARQRFSQEASLTVALRGSLEATRGQDVVIVAAPENTTVVSGQSVVMECVASADPTPFVSWVRQDGKPISTDVIVLGRTNLLIASAQPRHSGVYVCRANKPRTRDFATAAAELRVLAAPAISQAPEALSRTRASTARFVCRASGEPRPALHWLHDGIPLRPNGRVKVQGGGGSLVITQIGLQDAGYYQCVAENSAGTACAAAPLAVVVREGLPSAPTRVTATPLSSSSVLVAWERPELHSEQIIGFSLHYQKARGVDNVEYQFAVNNDTTELQVRDLEPNTDYEFYVVAYSQLGASRTSSPALVHTLDDVPSAAPQLTLSSPNPSDIRVAWLPLPSSLSNGQVLKYKIEYGLGKEDQVFSTEVPGNETQLTLNSLQPNKVYRVRISAGTGAGYGVPSQWMQHRTPGVHNQSHVPFAPAELKVRAKMESLVVSWQPPPHPTQISGYKLYWREVGTEEEADGDRPPGGRGDQAWDVGPVRLKKKVKQYELTQLVPGRLYEVKLVAFNKHEDGYAAVWKGKTEKAPTPDLPIQRGPPLPPAHVHAESNSSTSIWLRWKKPDFTTVKIVNYTVRFGPWGLRNASLVTYYTSSGEDILIGGLKPFTKYEFAVQSHGVDMDGPFGSVVERSTLPDRPSTPPSDLRLSPLTPSTVRLHWCPPTEPNGEIVEYLILYSNNHTQPEHQWTLLTTEGNIFSAEVHGLESDTRYFFKMGARTEVGPGPFSRLQDVITLQKTFSDSLDVHAV | 0.068 nM | 2.5 fold | 7 fold

Source: US20190125833A1 (Five Prime, published 2019)
